Measurements taken from article PMC6767918 (Science (New York, N.Y.), 2019).

Biological target: T1, SidJ^[change] (SidJ 59–851) (L. pneumophila, UniProt Q5ZTK6 59-851)
T1 sequence: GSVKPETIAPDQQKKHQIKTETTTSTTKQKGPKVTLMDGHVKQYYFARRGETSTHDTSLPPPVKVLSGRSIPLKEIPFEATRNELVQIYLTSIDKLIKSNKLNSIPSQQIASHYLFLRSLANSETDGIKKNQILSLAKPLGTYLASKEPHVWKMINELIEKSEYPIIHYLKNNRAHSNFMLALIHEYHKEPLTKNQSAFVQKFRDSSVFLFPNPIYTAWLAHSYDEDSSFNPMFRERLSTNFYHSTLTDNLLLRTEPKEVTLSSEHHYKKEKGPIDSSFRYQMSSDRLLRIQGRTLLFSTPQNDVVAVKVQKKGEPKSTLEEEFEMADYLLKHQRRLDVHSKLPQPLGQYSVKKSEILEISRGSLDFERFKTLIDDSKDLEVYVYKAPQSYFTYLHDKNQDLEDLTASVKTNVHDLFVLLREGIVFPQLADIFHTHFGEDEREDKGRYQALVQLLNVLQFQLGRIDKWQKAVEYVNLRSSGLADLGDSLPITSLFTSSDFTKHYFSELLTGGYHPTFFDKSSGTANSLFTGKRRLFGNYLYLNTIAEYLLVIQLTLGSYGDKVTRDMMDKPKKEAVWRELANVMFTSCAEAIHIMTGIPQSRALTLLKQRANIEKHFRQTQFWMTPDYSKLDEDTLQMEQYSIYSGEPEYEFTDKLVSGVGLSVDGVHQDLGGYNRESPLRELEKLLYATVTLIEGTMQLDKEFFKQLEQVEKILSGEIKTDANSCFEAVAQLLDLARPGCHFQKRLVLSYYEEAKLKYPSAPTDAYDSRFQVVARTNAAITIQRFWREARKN
Assay: crystal structure

B1: yeast CaM (yCaM) (natural protein)
chain: not shown
binding result: binds
